pKd: −log10 of the molar value.
Columns and labels:
[1] = target: tetrasome (DNA-(H3-H4)2 tetramer complex) (Xenopus laevis) (UniProt P84233); assay: FRET or BRET
[2] = target: mouse Nap1 (mNap1) single-cysteine mutant labeled with Alexa 546-C5-maleimide (mouse) (UniProt P28656); assay: other fluorescence titration

pKd [1]	pKd [2]	Substance
9.10		H2A-H2B_(A488) histone dimer (from UniProt P06897 1-130) (complex)
9.15		H2A_(A488)-H2B histone dimer (from UniProt P02281 1-126) (complex)
	9.30	uH2A containing histone dimer (uH2A-H2B) (from UniProt P0CG48 1-76; P02281 1-126) (complex)
	9.40	uH2B containing histone dimer (H2A-uH2B) (from UniProt P06897 1-130; P0CG48 1-76) (complex)
	9.10	unmodified H2A-H2B histone dimer (from UniProt P06897 1-130; P02281 1-126) (complex)

From publication PMC3535264
